The values that follow come from article PMC8099430, “CM1-driven assembly and activation of yeast γ-tubulin small complex underlies microtubule nucleation” (eLife, 2021).

First the molecules themselves.
B5: Spc97p (natural protein, S. cerevisiae)
chain: MEIKEVDDRAELLRYTNNIPLLGKLVNHQPLWSTNPKLKSFSLEKISAPDQRRVQEALVVKDLLNVLIGLEGTYIRYFNDYEPSDPETPIEFKIAKKMDPSFKTFSRRIVRYGKQYMILTRAYEKWSDTSFGMVLQRFAYEIRRFLEDVYLKTLVERLERDFNKVPNFSIRELEQIINETEVNKQMELLYNIYEEIFREIEERRTNQSSQEDFNNFMDSMKNESSLHLRLMVAFDTTVYPVPKGGAILKIFQQKILENLGDRSSVMFLKKLLNNISQDYCTMLYEWLTQGILNDPYQEFMTYDDLEGKTDNIFDTRDRAWDTQYFIRKDVLLRDCDSEEDKNLLFKMLRTGILLKVVRASLQIPTIPSNSSDITIQEINDFADLMEGSNLELYVDKCYSRANEIFLKLFFQGYDLINVLKHLQQIFLGYQSGHNVLKFLTKNMGELTKHYRNDNNANYDKLLQNFELERQSENPNNLMRQLLMIQFDTETLPQVLSHYLQIYPEVPENNSANDDSDPLMHANNFKNMNAILFDELSKERTGAYHGSNLELYTPKSAIYHLKFDINIPYPLNIIISRTCMIKYQIILRYQLVLQYHSRLLDETWMDLNKTPSWKYRGYSHTVKRRIVRATRVLHAKMNHFIKTIMEYFNQNVIDKEVYSLEKCYRNPTLAVAIQNELEGGLTNIMTNRCLSDLIPLQLQIFDIVYKFCKFIKSMRAKLCQLDPVLYEKHKSGMMKTLNEGYRTNNGGQEDVGYQEDAALELIQKLIEYISNASSIFRKCLINFTQELSTEKFDFYDSSSVDAAGIERVLYSIVPPRSASASSQR
notes: Spc97p, S. cerevisiae homologue of GCP2; the 712 a.a. built in the model are said to be 87% of the protein; also called GCP2 homologue; source: pFastBac-Spc97p construct; purified as part of γTuSC, prepared essentially as described (Vinh et al., 2002; Lyon et al., 2016)

Data set [1] deals with γTuSC (Saccharomyces cerevisiae) (UniProt P53378). To be noted: cited from earlier work.
Data set [2] addresses B5. Kind of data set: cryo-EM structure; γTuRC^WT helical filaments of γTuSC with Spc110p^1-220 (open and closed classes); 40 mM HEPES pH 7.5, 2 mM MgCl2, 1 mM EGTA, 1 mM GDP, 100 mM KCl, 1 mM DTT, 2.5% glycerol. To be noted: both partners purified.
Data set [3] deals with T1, Spc98p (S. cerevisiae, UniProt P53540 1-846).
T1 construct: Spc98p, S. cerevisiae homologue of GCP3; the 674 a.a. built in the model are said to be 80% of the protein; also called GCP3 homologue; source: pFastBac-Spc98p construct; purified as part of γTuSC, prepared essentially as described (Vinh et al., 2002; Lyon et al., 2016)
T1 sequence: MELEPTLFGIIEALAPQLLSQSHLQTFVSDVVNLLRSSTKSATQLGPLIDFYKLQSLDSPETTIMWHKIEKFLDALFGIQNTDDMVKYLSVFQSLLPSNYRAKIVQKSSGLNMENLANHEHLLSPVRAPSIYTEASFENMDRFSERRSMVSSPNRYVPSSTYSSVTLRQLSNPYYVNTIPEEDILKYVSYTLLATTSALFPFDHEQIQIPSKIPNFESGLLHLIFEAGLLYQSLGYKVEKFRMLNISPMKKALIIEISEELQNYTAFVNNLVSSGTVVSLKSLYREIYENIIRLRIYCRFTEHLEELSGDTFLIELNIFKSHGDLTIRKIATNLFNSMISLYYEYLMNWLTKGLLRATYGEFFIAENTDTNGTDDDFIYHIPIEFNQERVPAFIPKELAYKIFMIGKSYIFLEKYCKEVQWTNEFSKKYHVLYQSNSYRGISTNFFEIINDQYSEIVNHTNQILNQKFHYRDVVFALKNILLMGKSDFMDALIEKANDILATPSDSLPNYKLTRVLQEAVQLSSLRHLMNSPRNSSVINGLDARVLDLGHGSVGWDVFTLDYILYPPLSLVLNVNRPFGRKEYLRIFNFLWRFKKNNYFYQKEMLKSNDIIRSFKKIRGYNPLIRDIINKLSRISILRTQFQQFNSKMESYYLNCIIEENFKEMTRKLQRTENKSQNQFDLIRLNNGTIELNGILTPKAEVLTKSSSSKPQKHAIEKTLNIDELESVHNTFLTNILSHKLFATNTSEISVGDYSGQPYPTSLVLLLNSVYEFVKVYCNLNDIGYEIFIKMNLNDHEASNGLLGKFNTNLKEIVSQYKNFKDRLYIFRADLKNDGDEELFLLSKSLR
Described as above. To be noted: both partners purified.

In data set [4] the target is B5. Kind of data set: cryo-EM structure; γTuRC^SS helical filaments (disulfide-trapped closed state) of γTuSC^SS with Spc110p^1-220; 40 mM HEPES pH 7.5, 2 mM MgCl2, 1 mM EGTA, 0.5 mM GTP, 100 mM KCl, 1 mM oxidized glutathione, 2.5% glycerol. Conditions: both partners purified.
Data set [5] deals with T1, Spc98p. Described as above. Conditions: both partners purified.
Data set [6] concerns the molecule itself. The data set is described as follows: cryo-EM structure; γTuRC^WT helical filaments of γTuSC with Spc110p^1-220 (open and closed classes); 40 mM HEPES pH 7.5, 2 mM MgCl2, 1 mM EGTA, 1 mM GDP, 100 mM KCl, 1 mM DTT, 2.5% glycerol.
In data set [7] the target is B5. The data set is described as follows: cross-linking; XL-MS; DSS (0.44 mM, 3 min, RT) or EDC (5.4 mM plus 2.7 mM Sulfo-NHS, 30 min, RT); 0.4 µM γTuSC and 0.8 µM Spc110; 40 mM HEPES pH 7.0, 150 mM KCl. To be noted: both partners purified.

One may read the Kd as the concentration at which binding is half-saturated.

As for γTuSC (from UniProt P53378), the equilibrium dissociation constant (Kd) in data set [1] was 2 µM.

B1: γ-tubulin (Tub4p) (natural protein, S. cerevisiae)
chain: MGGEIITLQAGQCGNHVGKFLWSQLAKEHAIGTDGLSQLPDSSTERDDDTKPFFRENSRNKFTPRAIMMDSEPSVIADVENTFRGFFDPRNTWVASDGASAGNSWANGYDIGTRNQDDILNKIDKEIDSTDNFEGFQLLHSVAGGTGSGLGSNLLEALCDRYPKKILTTYSVFPARSSEVVVQSYNTILALRRLIEDSDATVVFDNASLLNISGKVFRNPNIDLQHTNQLISTIISSVTNSIRFPSYMYSSMSSIYSTLIPSPELHFLSPSFTPFTSDYIHDDIAHKGHSSYDVMLDLLDPSNSLVSTAMNNPTYFNVYNTIIGNVEPRQISRAMTKLQQRIKFPSWSSSAMHVNIGRRSPYLPLQPNENEVSGMMLSNMSTVVNVFENACNTFDKVFAKGAFLNNYNVGDLFQSMQNVQDEFAESREVVQSLMEDYVAAEQDSYLDDVLVDDENMVGELEEDLDADGDHKLV
notes: Tub4p, S. cerevisiae γ-tubulin; the 453 a.a. built in the model are said to be 96% of the protein; source: pFastBac-Tub4p construct; purified as part of γTuSC, prepared essentially as described (Vinh et al., 2002; Lyon et al., 2016)
For the molecule B1, the binding result with Spc97p [2] and with Spc98p [3] was “binds” throughout.

B2: Tub4p S58C/G288C (natural protein, S. cerevisiae)
chain: MGGEIITLQAGQCGNHVGKFLWSQLAKEHAIGTDGLSQLPDSSTERDDDTKPFFRENCRNKFTPRAIMMDSEPSVIADVENTFRGFFDPRNTWVASDGASAGNSWANGYDIGTRNQDDILNKIDKEIDSTDNFEGFQLLHSVAGGTGSGLGSNLLEALCDRYPKKILTTYSVFPARSSEVVVQSYNTILALRRLIEDSDATVVFDNASLLNISGKVFRNPNIDLQHTNQLISTIISSVTNSIRFPSYMYSSMSSIYSTLIPSPELHFLSPSFTPFTSDYIHDDIAHKCHSSYDVMLDLLDPSNSLVSTAMNNPTYFNVYNTIIGNVEPRQISRAMTKLQQRIKFPSWSSSAMHVNIGRRSPYLPLQPNENEVSGMMLSNMSTVVNVFENACNTFDKVFAKGAFLNNYNVGDLFQSMQNVQDEFAESREVVQSLMEDYVAAEQDSYLDDVLVDDENMVGELEEDLDADGDHKLV
modifications: engineered cysteines oxidised to disulfides (overnight dialysis into 1 mM oxidized glutathione)
notes: Tub4p, S. cerevisiae γ-tubulin, with S58C and G288C; also called γ-tubulin engineered with disulfides; γ-tubulin of γTuSC^SS / γTuRC^SS; source: pFastBac-Tub4p^S58C/G288C construct (Kollman et al., 2015); purified in filaments prepared essentially as described (Kollman et al., 2010; Kollman et al., 2015)
As to B2, the binding result in the data set with Spc97p [4] and with Spc98p [5] was “binds” throughout.

B3: Spc110p^1-220 (domain or fragment, S. cerevisiae, UniProt P32380 1-220, looked up)
chain: MDEASHLPNGSLKNMEFTPVGFIKSKRNTTQTQVVSPTKVPNANNGDENEGPVKKRQRRSIDDTIDSTRLFSEASQFDDSFPEIKANIPPSPRSGNVDKSRKRNLIDDLKKDVPMSQPLKEQEVREHQMKKERFDRALESKLLGKRHITYANSDISNKELYINEIKSLKHEIKELRKEKNDTLNNYDTLEEETDDLKNRLQALEKELDAKNKIVNSRKVD
notes: also called Spc110^1-220; N-terminal domain of Spc110p; source: pFastBac-GST-Spc110p^1-220 construct; purified in filaments with γTuSC, prepared essentially as described (Kollman et al., 2010; Kollman et al., 2015)
In the case of B3, the binding result (in data set [6]; with Spc97p [4]; with Spc98p [5]) was “binds” throughout.

B4: Spc110p^1-401-GST (domain or fragment, S. cerevisiae, UniProt P32380 1-401, looked up)
chain: MDEASHLPNGSLKNMEFTPVGFIKSKRNTTQTQVVSPTKVPNANNGDENEGPVKKRQRRSIDDTIDSTRLFSEASQFDDSFPEIKANIPPSPRSGNVDKSRKRNLIDDLKKDVPMSQPLKEQEVREHQMKKERFDRALESKLLGKRHITYANSDISNKELYINEIKSLKHEIKELRKEKNDTLNNYDTLEEETDDLKNRLQALEKELDAKNKIVNSRKVDDHSGCIEEREQMERKLAELERKLKTVKDQVLELENNSDVQSLKLRSKEDELKNLMNELNELKSNAEEKDTQLEFKKNELRKRTNELNELKIKSDEMDLQLKQKQNESKRLKDELNELETKFSENGSQSSAKENELKMLKNKIAELEEEISTKNSQLIAKEGKLASLMAQLTQLESKLNQRD
notes: Spc110p, S. cerevisiae, residues 1-401; also called Spc110^1-401-GST; Spc110^1-401; not shown: GST, C-terminal, kept
Turning to B4, in the data set with Spc97p [7], the binding result is on record as “binds”.
In the case of B5, the binding result in the data set with Spc98p [3] is listed as “binds”.
